Measured values: the supplement of paper PMC7125110
± gives the standard error. This sample holds only a part of the variants without activity.

B1: glmS ribozyme (parent)
chain: AUAAAAGCGCCAGAACUACAGAAAUGUAGUUGACGAGGAGGAGGUUUAUCGAAUUUUCGGCGGAUGCCUCCAAA

Assays:
Settings in all cases: with glucosamine-6-phosphate
glucosamine-6-phosphate [1] = variants of: B1; experiment: self-cleavage kobs at 40 uM GlcN6P; higher = faster cleavage; RNA array
Procedure, shortened: (§1)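 Weighted Michaelis–Menten fits across concentrations supplied kcat and KM, based on kobs from one- or two-exponential decay fits to normalised per-tile medians. The data came from barcoded ribozyme variants transcribed in situ by E. coli RNA polymerase on sequenced MiSeq chips and tracked at 37 °C by a hybridised Cy3 probe. Glucosamine-6-phosphate (40 μM to 10 mM) in HEPES/KCl/Mg(OAc)2 buffer was flowed in.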

glucosamine-6-phosphate [2] = variants of: B1; experiment: self-cleavage kobs at 2500 uM GlcN6P; higher = faster cleavage; RNA array
Procedure, shortened: as §1

glucosamine-6-phosphate [3] = variants of: B1; experiment: self-cleavage kobs at 10000 uM GlcN6P; higher = faster cleavage; RNA array
Procedure, shortened: as §1

glucosamine-6-phosphate [4] = variants of: B1; experiment: self-cleavage kobs at 160 uM GlcN6P; higher = faster cleavage; RNA array
Procedure, shortened: as §1

glucosamine-6-phosphate [5] = variants of: B1; experiment: self-cleavage kobs at 640 uM GlcN6P; higher = faster cleavage; RNA array
Procedure, shortened: as §1

Variant | self-cleavage kobs at 40 uM GlcN6P (glucosamine-6-phosphate [1]) | self-cleavage kobs at 2500 uM GlcN6P (glucosamine-6-phosphate [2]) | self-cleavage kobs at 10000 uM GlcN6P (glucosamine-6-phosphate [3]) | self-cleavage kobs at 160 uM GlcN6P (glucosamine-6-phosphate [4]) | self-cleavage kobs at 640 uM GlcN6P (glucosamine-6-phosphate [5])
U31C G32A G60U | < 1e-05 s⁻¹ | < 1e-05 s⁻¹ | < 1e-05 s⁻¹ | – | –
C8A G13U G41C U55C U65A U69G | < 1e-05 s⁻¹ | – | – | – | –
U30C G38U C61U | < 1e-05 s⁻¹ | – | – | – | –
C10A A15U C16U C34U | < 1e-05 s⁻¹ | – | – | – | –
A64C C67G | < 1e-05 s⁻¹ | < 1e-05 s⁻¹ | – | < 1e-05 s⁻¹ | < 1e-05 s⁻¹
C16U G38C A48G C50U U55G | < 1e-05 s⁻¹ | – | < 1e-05 s⁻¹ | – | –
C10U G40U C58A | < 1e-05 s⁻¹ | < 1e-05 s⁻¹ | < 1e-05 s⁻¹ | – | –
G29U C70U | 0.000204 ± 2.4e-05 s⁻¹ | 0.00187 ± 0.00047 s⁻¹ | 0.00452 ± 0.00093 s⁻¹ | 0.000273 ± 4.2e-05 s⁻¹ | 0.000574 ± 7.2e-05 s⁻¹
G29U U30A U31G A53U | < 1e-05 s⁻¹ | – | – | – | 7.01e-05 ± 2.6e-05 s⁻¹
C16G U57C | < 1e-05 s⁻¹ | – | 3.37e-05 ± 1.2e-05 s⁻¹ | < 1e-05 s⁻¹ | –
A6G G32U G37C A64U C68G C70G | < 1e-05 s⁻¹ | – | – | – | –
G35C U46C | < 1e-05 s⁻¹ | < 1e-05 s⁻¹ | – | – | < 1e-05 s⁻¹
C10G G51A | < 1e-05 s⁻¹ | < 1e-05 s⁻¹ | < 1e-05 s⁻¹ | – | < 1e-05 s⁻¹
A6C G9A | < 1e-05 s⁻¹ | – | < 1e-05 s⁻¹ | – | –
C10U C16G G35C A42U U57G G59A | < 1e-05 s⁻¹ | – | – | – | –
A15C G62A | < 1e-05 s⁻¹ | < 1e-05 s⁻¹ | < 1e-05 s⁻¹ | < 1e-05 s⁻¹ | < 1e-05 s⁻¹
A14G A15U G29A | 3.49e-05 ± 1.3e-05 s⁻¹ | – | 0.00133 ± 0.00028 s⁻¹ | – | –
A15G G29A | 0.000133 ± 3.8e-05 s⁻¹ | 0.00164 ± 0.00031 s⁻¹ | 0.0196 ± 0.0068 s⁻¹ | 0.000309 ± 8.6e-05 s⁻¹ | 0.00108 ± 0.00019 s⁻¹
A15U G32U A33U | < 1e-05 s⁻¹ | – | – | – | –
C34A A36G | < 1e-05 s⁻¹ | < 1e-05 s⁻¹ | < 1e-05 s⁻¹ | < 1e-05 s⁻¹ | < 1e-05 s⁻¹
A33G C71U | < 1e-05 s⁻¹ | – | < 1e-05 s⁻¹ | – | –
G38A C58U U69C | < 1e-05 s⁻¹ | – | < 1e-05 s⁻¹ | – | –
G7A G32A U45A A52G U65G | < 1e-05 s⁻¹ | – | – | – | –
G44C C67U C68U | < 1e-05 s⁻¹ | – | – | < 1e-05 s⁻¹ | –
A12U U57C G59C | < 1e-05 s⁻¹ | < 1e-05 s⁻¹ | – | – | < 1e-05 s⁻¹

Variant | self-cleavage kobs at 40 uM GlcN6P (glucosamine-6-phosphate [1]) | self-cleavage kobs at 2500 uM GlcN6P (glucosamine-6-phosphate [2]) | self-cleavage kobs at 10000 uM GlcN6P (glucosamine-6-phosphate [3]) | self-cleavage kobs at 160 uM GlcN6P (glucosamine-6-phosphate [4]) | self-cleavage kobs at 640 uM GlcN6P (glucosamine-6-phosphate [5])
U31C U69C | 4.67e-05 ± 1.5e-05 s⁻¹ | 0.00045 ± 8.2e-05 s⁻¹ | 0.0013 ± 0.00035 s⁻¹ | 5.62e-05 ± 1.5e-05 s⁻¹ | 0.000232 ± 6.2e-05 s⁻¹
A14G G32A U49A | < 1e-05 s⁻¹ | – | – | – | –
G9A C50G U65G G66C C70G | 5.55e-05 ± 2.4e-05 s⁻¹ | – | 4.91e-05 ± 1.6e-05 s⁻¹ | – | –
A52G G62C | < 1e-05 s⁻¹ | – | < 1e-05 s⁻¹ | < 1e-05 s⁻¹ | < 1e-05 s⁻¹
C10A G59A | < 1e-05 s⁻¹ | – | – | – | < 1e-05 s⁻¹
A15G A53G | 0.00127 ± 0.00016 s⁻¹ | 0.022 ± 0.0053 s⁻¹ | 0.0345 ± 0.008 s⁻¹ | 0.00183 ± 0.00039 s⁻¹ | 0.0109 ± 0.0017 s⁻¹
C8G C58G G60A | < 1e-05 s⁻¹ | – | < 1e-05 s⁻¹ | – | –
A15U A33U C61G | < 1e-05 s⁻¹ | – | – | – | –
C11U U30C A52C | < 1e-05 s⁻¹ | – | – | – | –
G7C U47C | < 1e-05 s⁻¹ | – | < 1e-05 s⁻¹ | < 1e-05 s⁻¹ | < 1e-05 s⁻¹
G9A C16G A52U | < 1e-05 s⁻¹ | – | < 1e-05 s⁻¹ | – | –
A6U C10A C11G A12C U54C | < 1e-05 s⁻¹ | – | < 1e-05 s⁻¹ | – | –
C10A G32A G51A | < 1e-05 s⁻¹ | – | – | – | –
G9C G59C | < 1e-05 s⁻¹ | < 1e-05 s⁻¹ | < 1e-05 s⁻¹ | < 1e-05 s⁻¹ | < 1e-05 s⁻¹
A6G C11G A42U | < 1e-05 s⁻¹ | < 1e-05 s⁻¹ | < 1e-05 s⁻¹ | – | –
A15C C16G G41A | < 1e-05 s⁻¹ | – | – | – | –
A14U U46G G63A U65A C70G C71G | 4.47e-05 ± 2e-05 s⁻¹ | – | – | – | –
C10U A15C G43U C50U U57G G59A | < 1e-05 s⁻¹ | < 1e-05 s⁻¹ | < 1e-05 s⁻¹ | < 1e-05 s⁻¹ | < 1e-05 s⁻¹
A33U U46A | < 1e-05 s⁻¹ | – | – | < 1e-05 s⁻¹ | < 1e-05 s⁻¹
A14G U31A | 0.00248 ± 0.00049 s⁻¹ | 0.0146 ± 0.006 s⁻¹ | 0.0669 ± 0.024 s⁻¹ | 0.0027 ± 0.00061 s⁻¹ | 0.00935 ± 0.0021 s⁻¹
G21U G43U G51U | < 1e-05 s⁻¹ | – | < 1e-05 s⁻¹ | – | < 1e-05 s⁻¹
C50G G63A C68A U69C | 0.000106 ± 2.3e-05 s⁻¹ | – | 0.000147 ± 2.8e-05 s⁻¹ | – | –
G60U A64U | < 1e-05 s⁻¹ | < 1e-05 s⁻¹ | < 1e-05 s⁻¹ | < 1e-05 s⁻¹ | –
G44C A52U | < 1e-05 s⁻¹ | – | – | – | –
A15C A39G G40A G59C | < 1e-05 s⁻¹ | – | – | – | –
